Reference: patent US20210139548A1 (published 2021)
*1 amine or outer side, *2 acyl side, *3 side chain or, on linkers, in order; H or OH if unused. Side-chain parts run from the residue outwards. The star is where a group is joined. C18 diacid = O=C(O)CCCCCCCCCCCCCCCCC(=O)*; γGlu = O=C(O)[C@H](CCC(=O)[*:2])N[*:1]; Isovaleryl = CC(C)CC(=O)*; AEEA = NCCOCCOCC(=O)O

T1: human neuropeptide Y2 receptor (human, UniProt P49146 1-381)
T1 construct: whole, on cells; also called hNPY2 receptor; hNPY2-R
T1 sequence (looked up): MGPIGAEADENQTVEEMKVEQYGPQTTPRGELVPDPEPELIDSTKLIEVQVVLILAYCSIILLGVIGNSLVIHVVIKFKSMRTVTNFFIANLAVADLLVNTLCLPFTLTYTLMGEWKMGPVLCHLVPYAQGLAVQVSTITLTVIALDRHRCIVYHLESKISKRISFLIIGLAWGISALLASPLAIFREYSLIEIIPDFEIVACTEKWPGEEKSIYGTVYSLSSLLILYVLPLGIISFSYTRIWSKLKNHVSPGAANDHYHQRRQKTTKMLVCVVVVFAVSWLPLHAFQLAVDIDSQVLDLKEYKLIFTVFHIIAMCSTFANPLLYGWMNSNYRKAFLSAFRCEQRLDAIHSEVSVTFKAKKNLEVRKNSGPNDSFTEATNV

T2: human NPY1 receptor (human, UniProt P25929 1-384)
T2 sequence (looked up): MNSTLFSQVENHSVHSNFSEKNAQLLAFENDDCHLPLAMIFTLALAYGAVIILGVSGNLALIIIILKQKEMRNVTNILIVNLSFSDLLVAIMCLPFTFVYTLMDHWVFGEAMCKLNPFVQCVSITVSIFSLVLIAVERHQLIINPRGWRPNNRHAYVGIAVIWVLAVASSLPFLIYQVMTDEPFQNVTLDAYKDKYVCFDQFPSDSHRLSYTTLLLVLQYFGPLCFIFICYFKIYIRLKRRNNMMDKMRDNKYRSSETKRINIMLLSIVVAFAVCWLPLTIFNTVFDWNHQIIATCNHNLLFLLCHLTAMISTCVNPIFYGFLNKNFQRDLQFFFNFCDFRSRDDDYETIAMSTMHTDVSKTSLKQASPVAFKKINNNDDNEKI

T3: human NPY5 receptor (human, UniProt Q15761 1-445)
T3 sequence (looked up): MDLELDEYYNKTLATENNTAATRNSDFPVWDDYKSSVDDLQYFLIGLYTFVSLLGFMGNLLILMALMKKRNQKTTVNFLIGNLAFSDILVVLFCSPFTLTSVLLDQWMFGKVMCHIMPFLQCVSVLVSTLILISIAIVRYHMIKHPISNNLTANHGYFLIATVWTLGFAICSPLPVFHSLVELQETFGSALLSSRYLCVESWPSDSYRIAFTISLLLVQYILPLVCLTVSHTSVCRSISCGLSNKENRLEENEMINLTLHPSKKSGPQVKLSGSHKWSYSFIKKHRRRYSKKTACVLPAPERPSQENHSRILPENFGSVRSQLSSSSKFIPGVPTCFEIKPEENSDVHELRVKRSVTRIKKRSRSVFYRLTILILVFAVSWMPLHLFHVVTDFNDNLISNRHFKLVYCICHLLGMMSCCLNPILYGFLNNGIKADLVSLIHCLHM

B1: Compound 29 (peptide)
peptide: Isovaleryl-APEK([AEEA-AEEA-γGlu-C18 diacid])PEAPASPEELQRYYVELRHYYNWLTRQRY-NH2
SMILES: CC(C)CC(=O)N[C@@H](C)C(=O)N1CCC[C@H]1C(=O)N[C@@H](CCC(=O)O)C(=O)N[C@@H](CCCCNC(=O)COCCOCCNC(=O)COCCOCCNC(=O)CC[C@H](NC(=O)CCCCCCCCCCCCCCCCC(=O)O)C(=O)O)C(=O)N1CCC[C@H]1C(=O)N[C@@H](CCC(=O)O)C(=O)N[C@@H](C)C(=O)N1CCC[C@H]1C(=O)N[C@@H](C)C(=O)N[C@@H](CO)C(=O)N1CCC[C@H]1C(=O)N[C@@H](CCC(=O)O)C(=O)N[C@@H](CCC(=O)O)C(=O)N[C@@H](CC(C)C)C(=O)N[C@@H](CCC(N)=O)C(=O)N[C@@H](CCCNC(=N)N)C(=O)N[C@@H](Cc1ccc(O)cc1)C(=O)N[C@@H](Cc1ccc(O)cc1)C(=O)N[C@H](C(=O)N[C@@H](CCC(=O)O)C(=O)N[C@@H](CC(C)C)C(=O)N[C@@H](CCCNC(=N)N)C(=O)N[C@@H](Cc1c[nH]cn1)C(=O)N[C@@H](Cc1ccc(O)cc1)C(=O)N[C@@H](Cc1ccc(O)cc1)C(=O)N[C@@H](CC(N)=O)C(=O)N[C@@H](Cc1c[nH]c2ccccc12)C(=O)N[C@@H](CC(C)C)C(=O)N[C@H](C(=O)N[C@@H](CCCNC(=N)N)C(=O)N[C@@H](CCC(N)=O)C(=O)N[C@@H](CCCNC(=N)N)C(=O)N[C@@H](Cc1ccc(O)cc1)C(N)=O)[C@@H](C)O)C(C)C
B2: Ref. 3 (peptide)
peptide: Isovaleryl-RPEK([AEEA-AEEA-γGlu-C18 diacid])PGEDASPEELQRYYVSLRAYYNWLTRQRY-NH2
SMILES: CC(C)CC(=O)N[C@@H](CCCNC(=N)N)C(=O)N1CCC[C@H]1C(=O)N[C@@H](CCC(=O)O)C(=O)N[C@@H](CCCCNC(=O)COCCOCCNC(=O)COCCOCCNC(=O)CC[C@H](NC(=O)CCCCCCCCCCCCCCCCC(=O)O)C(=O)O)C(=O)N1CCC[C@H]1C(=O)NCC(=O)N[C@@H](CCC(=O)O)C(=O)N[C@@H](CC(=O)O)C(=O)N[C@@H](C)C(=O)N[C@@H](CO)C(=O)N1CCC[C@H]1C(=O)N[C@@H](CCC(=O)O)C(=O)N[C@@H](CCC(=O)O)C(=O)N[C@@H](CC(C)C)C(=O)N[C@@H](CCC(N)=O)C(=O)N[C@@H](CCCNC(=N)N)C(=O)N[C@@H](Cc1ccc(O)cc1)C(=O)N[C@@H](Cc1ccc(O)cc1)C(=O)N[C@H](C(=O)N[C@@H](CO)C(=O)N[C@@H](CC(C)C)C(=O)N[C@@H](CCCNC(=N)N)C(=O)N[C@@H](C)C(=O)N[C@@H](Cc1ccc(O)cc1)C(=O)N[C@@H](Cc1ccc(O)cc1)C(=O)N[C@@H](CC(N)=O)C(=O)N[C@@H](Cc1c[nH]c2ccccc12)C(=O)N[C@@H](CC(C)C)C(=O)N[C@H](C(=O)N[C@@H](CCCNC(=N)N)C(=O)N[C@@H](CCC(N)=O)C(=O)N[C@@H](CCCNC(=N)N)C(=O)N[C@@H](Cc1ccc(O)cc1)C(N)=O)[C@@H](C)O)C(C)C

How the values were obtained:
[1] = target: T1, human neuropeptide Y2 receptor; experiment: RLB 8: apparent Ki of filtrate after incubation at pH 8.1-8.2
Method: (§1) The filtration RLB assay was carried out in 96-well plates in a final volume of 100 μl per well. Freeze-dried test peptides were dissolved in 100% dimethyl sulfoxide (DMSO) to stock solutions of 1 mM and serial dilutions were performed in assay buffer (50 mM HEPES, 5 mM MgCl₂, 1 mM CaCl₂, pH 7.4) containing 0.2% ovalbumin. […] Next, 80 μL membranes (HTS066M, ChemiSCREEN™ Human Neuropeptide Y2 Receptor Membrane Preparation, CHEMICON) were added to each well to give a final protein concentration of 0.5 μg/well. The plates were sealed and incubated at room temperature for 2 hours in a plate shaker set at 400 rpm. The incubation was stopped by vacuum filtration onto 0.5% poly-ethylene amine (PEI) presoaked GF/C filters using a 96-well FilterMate™ harvester (Perkin Elmer) followed by four washes with 300 μl/well ice-cold wash buffer (50 mM HEPES, 500 mM NaCl, pH7.4). Filter plates were then dried for 60 min at room temperature and the bottom of the plates was sealed with backing tape UniFilter-96. Finally, 50 μl/well scintillation counter cocktail (Microscint20, Packard) was added and the radioactivity was counted in the Packard TopCount NXT scintillation counter. IC₅₀ values (the half maximal inhibitory concentration of the agonist) were calculated by nonlinear regression analysis of sigmoidal dose-response curves.
(§2) Peptides (as TFA salts) were weighed out in a filter unit (Mini-UniPrep Syringeless Filter 0.45 μm, Whatman), and 0.1 M sodium diphosphate buffer at pH 6.4 or 7.4, respectively, or 0.2 M TRIS buffer at pH 8.3 was added to achieve 10 mg/ml final concentration. The peptide was (partially) dissolved by shaking the filter unit horizontally at approx. 400 rpm for 2 hours at room temperature. The sample was filtered to remove any insoluble particles.

[2] = target: T1, human neuropeptide Y2 receptor; experiment: ratio of apparent Ki, pH 8.1-8.2 over pH 7.1-7.2
Method: as §1, §2

[3] = target: T1, human neuropeptide Y2 receptor; experiment: RLB 7: apparent Ki of filtrate after incubation at pH 7.1-7.2
Method: as §1, §2

[4] = target: T1, human neuropeptide Y2 receptor; experiment: ratio of apparent Ki, pH 6.1-6.2 over pH 7.1-7.2
Method: as §1, §2

[5] = target: T1, human neuropeptide Y2 receptor; experiment: RLB 6: apparent Ki of filtrate after incubation at pH 6.1-6.2
[6] = target: T1, human neuropeptide Y2 receptor; experiment: radioligand competition (125I-PYY(1-36)), hNPY2R membranes
Method in brief: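 Commercial human Y2 receptor membranes (0.5 μg protein/well) were incubated with peptide for 2 h at room temperature in 50 mM HEPES, 5 mM MgCl₂, 1 mM CaCl₂, pH 7.4, with 0.2% ovalbumin. Bound radioligand was separated on PEI-soaked GF/C filters and counted by scintillation, and IC₅₀ came from nonlinear sigmoidal regression.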

[7] = target: T1, human neuropeptide Y2 receptor; experiment: radioligand competition (125I-PYY(1-36)), hY2R membranes; DMSO stock
Method: as §1

[8] = target: T1, human neuropeptide Y2 receptor; experiment: cell-based or functional assay
human NPY1 receptor = target: T2, human NPY1 receptor; experiment: cell-based or functional assay
human NPY5 receptor = target: T3, human NPY5 receptor; experiment: cell-based or functional assay
human NPY4 receptor = human NPY4 receptor (human, UniProt P50391 1-375); experiment: cell-based or functional assay
human NPY4 receptor, sequence (P50391 whole entry): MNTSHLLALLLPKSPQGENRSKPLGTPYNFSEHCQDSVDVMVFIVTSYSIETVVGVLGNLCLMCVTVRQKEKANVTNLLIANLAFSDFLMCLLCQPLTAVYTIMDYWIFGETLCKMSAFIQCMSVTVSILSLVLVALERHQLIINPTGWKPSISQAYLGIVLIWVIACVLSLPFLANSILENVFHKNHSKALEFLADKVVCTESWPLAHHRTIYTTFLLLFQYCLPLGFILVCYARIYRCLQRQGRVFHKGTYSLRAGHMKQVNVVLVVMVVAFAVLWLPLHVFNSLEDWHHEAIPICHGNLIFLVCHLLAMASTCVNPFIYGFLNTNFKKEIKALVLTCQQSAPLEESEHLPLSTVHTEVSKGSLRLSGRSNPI

[9] = target: T1, human neuropeptide Y2 receptor; experiment: cell-based or functional assay; remark: listed apart in the source

Row | Binder | Ki [1] [nM] | RLB ratio (RLB8/RLB7) [2] | Ki [3] [nM] | RLB ratio (RLB6/RLB7) [4] | Ki [5] [nM] | Ki [6] [nM] | Ki [7] [nM] | EC50 (HTRF cAMP Gi assay) [8] [nM] | EC50 (HTRF cAMP Gi assay) (human NPY1 receptor) [nM] | EC50 (HTRF cAMP Gi assay) (human NPY5 receptor) [nM] | EC50 (HTRF cAMP Gi assay) (human NPY4 receptor) [nM] | EC50 (hY2 cAMP, HTRF cAMP Gi assay) [9] [nM]
1 | Isovaleryl-APAK([AEEA-AEEA-γGlu-C18 diacid])PEEDASPEEIQRYYVSLRHYYNWLTRQRY-NH2 [Compound 23] | 6.3 | 1 | 6.3 | 1 | 6.3 | 0.63 | 4.9 | 0.15 | > 5000 | > 5000 | > 5000 | 
2 | B1 | 2.3 | 0.5 | 4.4 | 0.9 | 3.8 | 0.29 | 4.6 |  |  |  |  | 
3 | B2 |  |  |  |  |  | 1.69 |  |  |  |  |  | 0.375
4 | Isovaleryl-APEK([AEEA-AEEA-γGlu-C18 diacid])PEADASPEEIQRYYVSLRHYYNWLTRQRY-NH2 [Compound 53] | 2.5 | 0.8 | 3.1 | 1.1 | 3.4 | 0.24 | 2 | 0.119 | > 5000 | > 5000 | > 5000 | 
5 | Isovaleryl-APAK([AEEA-AEEA-γGlu-C18 diacid])PEEDATPEELQRYYVSLRHYYNWLTRQRY-NH2 [Compound 106] | 7.5 | 0.8 | 9.3 | 0.8 | 7.7 | 0.66 | 6 | 0.173 | > 5000 | > 5000 | > 5000 | 
